Assay in all cases: SPR
Background: SPR reads the build-up and loss of mass on a sensor chip optically.

The target in test [1] is human Igαβ heterodimer, extracellular domains fused with a leucine zipper (Igαβ-LZ) (human) (UniProt P11912).
The target of test [2] is Fc portion of a human BCR μ-chain (Fcμ, amino acid residues 258-586), corresponding to Cμ2-Cμ4 (human).
The target in another test is T1, Fcμ Fc (Homo sapiens, UniProt P01871).
T1 chain: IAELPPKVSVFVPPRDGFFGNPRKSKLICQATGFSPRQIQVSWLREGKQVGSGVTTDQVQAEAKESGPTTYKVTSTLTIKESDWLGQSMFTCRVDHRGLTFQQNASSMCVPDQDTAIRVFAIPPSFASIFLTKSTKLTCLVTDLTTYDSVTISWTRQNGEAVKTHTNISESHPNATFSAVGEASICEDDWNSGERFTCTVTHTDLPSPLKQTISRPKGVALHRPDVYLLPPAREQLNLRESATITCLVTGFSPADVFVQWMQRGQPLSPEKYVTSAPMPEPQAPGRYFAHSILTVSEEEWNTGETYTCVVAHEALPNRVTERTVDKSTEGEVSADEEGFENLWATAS

Some results are limits rather than exact numbers.

Fc portion of a human BCR μ-chain (Fcμ, amino acid residues 258-586), corresponding to Cμ2-Cμ4 (human), sequence (P01871 whole entry, the tested form may be a part): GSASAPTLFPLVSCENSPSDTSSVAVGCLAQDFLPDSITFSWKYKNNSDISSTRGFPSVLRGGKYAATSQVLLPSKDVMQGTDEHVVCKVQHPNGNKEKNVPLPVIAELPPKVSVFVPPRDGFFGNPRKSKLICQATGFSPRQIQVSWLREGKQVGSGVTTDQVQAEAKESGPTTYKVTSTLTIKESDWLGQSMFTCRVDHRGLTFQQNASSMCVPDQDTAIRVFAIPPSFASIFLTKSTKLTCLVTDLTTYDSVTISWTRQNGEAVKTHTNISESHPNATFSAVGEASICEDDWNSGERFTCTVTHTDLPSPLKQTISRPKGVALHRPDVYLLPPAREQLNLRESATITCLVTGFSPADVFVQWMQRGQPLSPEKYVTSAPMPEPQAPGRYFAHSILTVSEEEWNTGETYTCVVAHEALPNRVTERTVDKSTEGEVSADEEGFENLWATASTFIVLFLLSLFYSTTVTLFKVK

One may read the Kd as the equilibrium constant for the complex coming apart. In turn, “human IgM (from UniProt P01591 23-159) (antibody)” yielded a Kd in test [1] above 10000 nM. For the molecule “human Igα extracellular portion, N60A (α3) (from UniProt P11912 33-143) (domain or fragment)”, in test [2], the fold increase of binding against the wild type was 2 fold. In test [2], “human Igβ extracellular portion, Q123A/Q124A/K125A (β4) (from UniProt P40259 26-159) (domain or fragment)” displayed a fold reduction of binding against the wild type of 2 fold. Same read-out and setting: next, “human Igβ extracellular portion, R55A/K56A/R57A (β1) (from UniProt P40259 26-159) (domain or fragment)”: 6 fold.

B1: Igαβ (protein)
chain 1: LWMHKVPASLMVSLGEDAHFQCPHNSSNNANVTWWRVLHGNYTWPPEFLGPGEDPNGTLIIQNVNKSHGGIYVCRVQEGNESYQQSCGTYLRVRQPPPRPFLDMGEGTKNRIITAEGIILLFCAVVPGTLLLFRKRWQNEKLGLDAGDEYEDENLYEGLNLDDCSMYEDISRGLQGTYQDVGSLNIGDVQLEKP
chain 2: ARSEDRYRNPKGSACSRIWQSPRFIARKRGFTVKMHCYMNSASGNVSWLWKQEMDENPQQLKLEKGRMEESQNESLATLTIQGIRFEDNGIYFCQQKCNNTSEVYQGCGTELRVMGFSTLAQLKQRNTLKDGIIMIQTLLIILFIIVPIFLLLDKDDSKAGMEEDHTYEGLDIDQTATYEDIVTLRTGEVKWSVGEHPGQE
In the test with Fcμ Fc, B1 gave a Kd of around 2000 nM.

Values taken from article PMC2921123 (2010).
